To fix the notation:
B1: THAP1; numbered along this chain (parent)
chain: MVQSCSAYGCKNRYDKDKPVSFHKFPLTRPSLCKEWEAAVRRKNFKPTKYSSICSEHFTPDCFKRECNNKLLKENAVPTIFLCTEPHDKKEDLLEPQEQLPPPPLPPPVSQVDAAIGLLMPPLQTPVNLSVFCDHNYTVEDTMHQRKRIHQLEQQVEKLRKKLKTAQQRCRRQERQLEKLKEVVHFQKEKDDVSERGYVILPNDYFEIVEVPA

In this series the parent is B1. Description: THAP1 transcriptional activity (GFP+/GFP- enrichment relative to wild-type constructs) (ratio to WT); higher = more THAP1 activity (PSMB5 reporter activation). Particulars: with PSMB5 promoter-GFP reporter. An outline of the steps:
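Activity values are replicate-mean bright/dim read fold changes divided by the mean of wild-type synonymous constructs. They come from a human THAP1 site-saturation library (residues 2–213, each changed to all 20 amino acids) delivered by lentivirus at MOI ~0.3, in duplicate, into THAP1-knockout HEK-293T cells with mClover3 at endogenous PSMB5. BFP+ cells were sorted into GFP-dim and GFP-bright bins after five days, and variants were counted by Illumina sequencing of genomic DNA amplicons.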
Consider MVQSCSAYGCKNRYDKDKPVSFHKFPLTRPSLCKEWEAAVRRKNFKPTKYSSICSEHFTPDCFKRECNNKLLKENAVPTIFLCTEPHDKKEDLLEPQEQLVPPPLPPPVSQVDAAIGLLMPPLQTPVNLSVFCDHNYTVEDTMHQRKRIHQLEQQVEKLRKKLKTAQQRCRRQERQLEKLKEVVHFQKEKDDVSERGYVILPNDYFEIVEVPA [P101V], for which the THAP1 transcriptional activity is 0.772.

In the case of MVDSCSAYGCKNRYDKDKPVSFHKFPLTRPSLCKEWEAAVRRKNFKPTKYSSICSEHFTPDCFKRECNNKLLKENAVPTIFLCTEPHDKKEDLLEPQEQLPPPPLPPPVSQVDAAIGLLMPPLQTPVNLSVFCDHNYTVEDTMHQRKRIHQLEQQVEKLRKKLKTAQQRCRRQERQLEKLKEVVHFQKEKDDVSERGYVILPNDYFEIVEVPA [Q3D], the THAP1 transcriptional activity came out at 0.119. MVSSCSAYGCKNRYDKDKPVSFHKFPLTRPSLCKEWEAAVRRKNFKPTKYSSICSEHFTPDCFKRECNNKLLKENAVPTIFLCTEPHDKKEDLLEPQEQLPPPPLPPPVSQVDAAIGLLMPPLQTPVNLSVFCDHNYTVEDTMHQRKRIHQLEQQVEKLRKKLKTAQQRCRRQERQLEKLKEVVHFQKEKDDVSERGYVILPNDYFEIVEVPA [Q3S]: the THAP1 transcriptional activity amounted to 0.278. On to MVQSCSAYGCKNRYDKDKPVSFHKFPLTRPSLCKEWEAAVRRKNFKPTKYSSICSEHFTPDCFKRECNNKLLKENAVPTIFLCTEPHDKKEDLLEPQEQLPPPPLPPMVSQVDAAIGLLMPPLQTPVNLSVFCDHNYTVEDTMHQRKRIHQLEQQVEKLRKKLKTAQQRCRRQERQLEKLKEVVHFQKEKDDVSERGYVILPNDYFEIVEVPA [P108M], for which the THAP1 transcriptional activity is 0.588. Regarding MVQSCSAYGCKNRYDKDKPVSFHKFPLTRPSLCKEWEAAVRRKNFKPTKYSSICSEHFTPDCFKRECNNKLLKENAVPTIFLKTEPHDKKEDLLEPQEQLPPPPLPPPVSQVDAAIGLLMPPLQTPVNLSVFCDHNYTVEDTMHQRKRIHQLEQQVEKLRKKLKTAQQRCRRQERQLEKLKEVVHFQKEKDDVSERGYVILPNDYFEIVEVPA [C83K], the THAP1 transcriptional activity stood at 1. In the case of MVQSCSAYGCKNRYDKDKPVSFHKFPLTRPSLCKEWEAAVRRKNFKPTKYSSICSEHFTPDCFKRECNNKLLKENAVPTIFLCTHPHDKKEDLLEPQEQLPPPPLPPPVSQVDAAIGLLMPPLQTPVNLSVFCDHNYTVEDTMHQRKRIHQLEQQVEKLRKKLKTAQQRCRRQERQLEKLKEVVHFQKEKDDVSERGYVILPNDYFEIVEVPA [E85H], the THAP1 transcriptional activity is 0.704. In the case of MVQSCSAYGCKNRYDKDKPVSFHKFPLTRPSLCKEWEAAVRRKNFKPTKYSSICSEHFTPDCFKRECNNKLLKENAVCTIFLCTEPHDKKEDLLEPQEQLPPPPLPPPVSQVDAAIGLLMPPLQTPVNLSVFCDHNYTVEDTMHQRKRIHQLEQQVEKLRKKLKTAQQRCRRQERQLEKLKEVVHFQKEKDDVSERGYVILPNDYFEIVEVPA [P78C], the THAP1 transcriptional activity worked out at 0.419. Turning to MVQSKSAYGCKNRYDKDKPVSFHKFPLTRPSLCKEWEAAVRRKNFKPTKYSSICSEHFTPDCFKRECNNKLLKENAVPTIFLCTEPHDKKEDLLEPQEQLPPPPLPPPVSQVDAAIGLLMPPLQTPVNLSVFCDHNYTVEDTMHQRKRIHQLEQQVEKLRKKLKTAQQRCRRQERQLEKLKEVVHFQKEKDDVSERGYVILPNDYFEIVEVPA [C5K], the THAP1 transcriptional activity stood at 0.167.

MVQSCSAYGCKNRYDKDKPVSFHKFPLTRPSLCKEWEAAVRRKNFKPTKYSSICSEHFTPDCFKRECNNKLLKENAVPTIFLCTEPHDKKEDLLEPQEQLPPPPLPPPVSQVDAAIGLLMPPLQTPVNLSVFCDHNYTVEDTMHQRKRIHQLEQQVEKLRKKLKTAQQRCRRQERQLEKLKEVVHFQKEKDDVSERTYVILPNDYFEIVEVPA [G197T]: the THAP1 transcriptional activity was found to be 1.41. Take MVQSCSAYGCKNRYDKDKPVSFHKFPLTRPSLCKEWEAAVRRKNFKPTKYSSICSEHFTPDCFKRECNNKLLKENAVPTIFLCTEPHDKKEDLLEPQEQLPPPPLPPPRSQVDAAIGLLMPPLQTPVNLSVFCDHNYTVEDTMHQRKRIHQLEQQVEKLRKKLKTAQQRCRRQERQLEKLKEVVHFQKEKDDVSERGYVILPNDYFEIVEVPA [V109R]: the THAP1 transcriptional activity is 0.788.

For MVQSCSAYGCKNRYDKDKPVSFHKFPLTRPSLCKEWEAAVRRKNFKPTKYSSICSEHFTPDCFKRECNNKLLKENAVPTIFLCTEPHDKKEDLLEPQEQLPPPPLPPPVSHVDAAIGLLMPPLQTPVNLSVFCDHNYTVEDTMHQRKRIHQLEQQVEKLRKKLKTAQQRCRRQERQLEKLKEVVHFQKEKDDVSERGYVILPNDYFEIVEVPA [Q111H], the THAP1 transcriptional activity was found to be 0.97.

Take MVQSCSAYGCKNRYDKDKPVSFHKFPLFRPSLCKEWEAAVRRKNFKPTKYSSICSEHFTPDCFKRECNNKLLKENAVPTIFLCTEPHDKKEDLLEPQEQLPPPPLPPPVSQVDAAIGLLMPPLQTPVNLSVFCDHNYTVEDTMHQRKRIHQLEQQVEKLRKKLKTAQQRCRRQERQLEKLKEVVHFQKEKDDVSERGYVILPNDYFEIVEVPA [T28F]: the THAP1 transcriptional activity stood at 0.194. On to MVQSCSAYGCKNRYDKDKPVSFHKDPLTRPSLCKEWEAAVRRKNFKPTKYSSICSEHFTPDCFKRECNNKLLKENAVPTIFLCTEPHDKKEDLLEPQEQLPPPPLPPPVSQVDAAIGLLMPPLQTPVNLSVFCDHNYTVEDTMHQRKRIHQLEQQVEKLRKKLKTAQQRCRRQERQLEKLKEVVHFQKEKDDVSERGYVILPNDYFEIVEVPA [F25D], for which the THAP1 transcriptional activity amounted to 0.123.

On to MVQSCSAYGCKNRYDKDKPVSFHKFPMTRPSLCKEWEAAVRRKNFKPTKYSSICSEHFTPDCFKRECNNKLLKENAVPTIFLCTEPHDKKEDLLEPQEQLPPPPLPPPVSQVDAAIGLLMPPLQTPVNLSVFCDHNYTVEDTMHQRKRIHQLEQQVEKLRKKLKTAQQRCRRQERQLEKLKEVVHFQKEKDDVSERGYVILPNDYFEIVEVPA [L27M], for which the THAP1 transcriptional activity amounted to 0.41.
